Tests used:
[1] = LC-MS assay of GH3 conjugation of 2,4-D with Asp or Glu; format: biochemical; details: 5 mM 2,4-D substrate; for kcat (hrs−1) 2,4-D-Asp: conjugation of 2,4-D with Asp by recombinant GH3 protein, 2,4-D-Asp product by LC-MS; for kcat (hrs−1) 2,4-D-Glu: conjugation of 2,4-D with Glu by recombinant GH3 protein, 2,4-D-Glu product by LC-MS
Method in brief: (§1)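 N-terminal His-tagged GH3 homologs, expressed in E. coli C41(DE3) and Ni-NTA purified, at 44 to 164 μg/mL incubated 3 h at 30 °C in 20 mM Tris-HCl pH 8.0, 5 mM MgCl2, 1 mM DTT, 5 mM ATP, 5 mM auxin (IAA, 2,4-D or dicamba) and 5 mM Asp or Glu. Conjugates quantified by LC-MS against standards after MeOH precipitation; kinetics from Michaelis-Menten fits of initial velocities.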

[2] = LC-MS assay of GH3 conjugation of IAA with Asp or Glu; format: biochemical; details: for kcat (hrs−1) IAA-Asp: conjugation of IAA with Asp by recombinant GH3 protein, IAA-Asp product by LC-MS; for kcat (hrs−1) IAA-Glu: conjugation of IAA with Glu by recombinant GH3 protein, IAA-Glu product by LC-MS
Method in brief: as §1

B1: PtGH3-5: GH3 protein, accession EEE97566 (protein, listed as Populus trichocarpa)
chain: MPEAPKNTLKPSDYNLAEKNKKSLQFIEDVTSNADEAQKKVLEEILSRNAHVEYLQRHGLNGQTNRETFKKVMPVINYEDIQPDINRIANGDASPILCSKPISEFLTSSGTSGGERKLMPTIVEELGRRSLLYSLLMPVMSQFVPDLEKGKGMYFLFIKSEAKTPGGLVARPVLTSYYKSTHFKDRPYDPYTNYTSPNETILCPDSYQSMYSQMLCGLCQHKEVLRVGAVFASGFIRAIRFLEKYWKFLANDIRTGIIDPQITDPSIREAVMKILKPDAKLADFIEAECSKESWQGIITRLWPNTKYVDVIVTGTMSQYIPTLDYYSNGLPLVCTMYASSECYFGVNLNPICKPSEVSYTLIPTMAYFEFLPVNRNNGGINSVSRPKSLKEKEQQELVDLVDVKLDQEYELVVTTYAGLYRYRVGDVLRVVGFKNKAPQFSFICRKNVVLSIDSDKTDEVELQSAVKNAVNHLIPFDATLAEYTSYADTTTIPGHYVLFWELSLSGSTPIPPSVFEDCCLTIEESLNSVYRQGRVSDKSIGPLEIKIVEPGTFDKLMDYAISLGASINQYKTPRCVKFAPIVELLNSRAVSRYFSPKCPKWVPGHKQWNKN
[1]
  kcat (hrs−1) 2,4-D-Asp: 3.142 h⁻¹
  kcat (hrs−1) 2,4-D-Glu: 1.214 h⁻¹
[2]
  kcat (hrs−1) IAA-Asp: 941.117 h⁻¹
  kcat (hrs−1) IAA-Glu: 160.490 h⁻¹

B2: RcGH3-3: GH3 protein, accession XP_002524947 (protein, listed as Ricinus communis)
chain: MAVDSGLSSPLGPPACEKDAKALQFIEEMTRNIDSVQEKVLAEILSRNAETEYLERFQLNGATDRDAFKSKVPVVTYEDLQPEIQRIANGDRSNIFSSHPISEFLTSSGTSAGERKLMPTIHEELDRRTLLYSLLMPVMNLYVPGLDKGKGLYFLFVKAETKTPGGLVARPVLTSYYKSEHFKNRPFDPYNVYTSPNETILCPDSFQSMYSQMLCGLIMREEVLRVGAVFASGLLRAIRFLQINCKHLAEDISTGTLNPKISDPSIRECMAKILKPNPELAEFITKECSEENWEGIITRIWPNTKYLDVIVTGAMAQYIPTLEYYSNGLPMACTMYASSECYFGVNLNPMVKPSDVSYTIMPNMAYFEFLPHESSSSALSRDSPPRLVDLADVEVGKEYELVITTYAGLNRYRVGDILRVTGFHNAAPQFRFIRRKNVLLSIDSDKTDESELQKAIENASLLLREFNTSVVEYTSYGDTKTIPGHYVIYWELLIKDPSNSPTEQVLNQCCLAMEESLNSVYRQGRVADSSIGPLEIRVVKNGTFEELMDYAISRGASINQYKVPRCVSFTPIMELLDSRVVSKHFSPSLPQWTPERRR
[1]
  kcat (hrs−1) 2,4-D-Asp: 3.813 h⁻¹
  kcat (hrs−1) 2,4-D-Glu: 1.854 h⁻¹
[2]
  kcat (hrs−1) IAA-Asp: 887.172 h⁻¹
  kcat (hrs−1) IAA-Glu: 36.015 h⁻¹

B3: RcGH3-6: GH3 protein, accession XP_002533739 (protein, listed as Ricinus communis)
chain: MPEAPKNSLISSDYNLSEKNRKTLQFIEDVTSNPDEVQKKVLEEILTRNARVEYLQKHGLNGYTDRESFKKIMPVIAYEDIQPHINRIANGDTSPILCSKPISEFLTSSGTSGGERKLMPTIEEELGRRSLLYSLLMPVMNQFVPGLEKGKGMYFLFIKSEAKTPGGLVARPVLTSYYKSSHFKDRPFDPYTNYTSPNETILCPDSYQSMYSQMLCGLCQRNDVLRVGAVFASGFIRAIRFLEKHWQLLCNDIRTGTVNPQITDLSVREAVMKILKPDPKLADFIAAECSQESWQGIITRLWPNTKYVDVIVTGTMSQYIPTLDYYSNGLPLVCTMYASSECYFGVNLNPLCKPSEVSYTLIPTMAYFEFLPVHRNNGVTNSISMPKSLNEKEQQELVDLVDVKLGQEYELVVTTYAGLYRYRVGDVLRVAGFKNKAPQFNFICRKNVVLSIDSDKTDEVELQNAVKNAVNHLVPFDATLAEYTSYADTTSIPGHYVLFWEITLNGSTPIPPSIFEDCCLTIEESLNSVYRQGRVSDKSIGPLEIKIVEPGTFDKLMDYAISLGASINQYKTPRCVKFAPIVELLNSRVVSSYFSPKCPKWVPGHKQWGNKN
[1]
  kcat (hrs−1) 2,4-D-Asp: 4.189 h⁻¹
  kcat (hrs−1) 2,4-D-Glu: 2.525 h⁻¹
[2]
  kcat (hrs−1) IAA-Asp: 1037.037 h⁻¹
  kcat (hrs−1) IAA-Glu: 183.972 h⁻¹

B4: PtGH3-8: GH3 protein, accession EEE78719 (protein, listed as Populus trichocarpa)
chain: MLPIFDPNDNEAGLKLLEDLTNNACQIQRQVLEYILTTNLHTGYLKSFLNGDSSKENFKNKVPIVNYEDIKPCIERIANGEPSSIISAQPITELLTSSGTSGGQPKMMPSTAEELERKTFFYNLLMPIMNKYVDGLDQGKGMYLLFTKPEISTPSGLMARPVLTSYYKSSNFRNRAFNRYNVYTSPDETILCPDSKQSMYCQLLCGLVQREEVLRVGAVFASAFLRAIKFLEEYQKELCSNIRTGRLSDWITDPNCRNAVSSFLSKPNSELADLIEVECSGKSCEGIIKKLWPRTKYIEVIVTGSMAQYIPTLEFYSGGLPLVSTMYGSSECYLGINFKPLSNPSDVSYTLIPNMAYFEFLPVDKDNKKVIQAEKDVEAVDLEDVKLGHYYELVVTTFTGLYRYRVGDILMVTGFYNNAPQFRFVHRRNVVLSIDTDKTNEEDLLKAVTQAKVLLEPLGFLLTEYTSFADTSSIPGHYVLFWELKTQGTNDLPELDPITMEKCCSTVEESLDSIYRRCRKKDKSIGPLEIRVVTHGTFDALMDFCVSQGSSVNQYKTTRCIKSEEAFKILHSRVVGRFFSKKTPFWE
[1]
  kcat (hrs−1) 2,4-D-Asp: 0.000 h⁻¹
  kcat (hrs−1) 2,4-D-Glu: 0.559 h⁻¹
[2]
  kcat (hrs−1) IAA-Asp: 13.999 h⁻¹
  kcat (hrs−1) IAA-Glu: 568.780 h⁻¹

B5: PtGH3-4: GH3 protein, accession EEE95321 (protein, listed as Populus trichocarpa)
chain: MPEEAPMKNLVCEKSRKALQFIEDVTRNADEVQRKVLAEILSRNANVEYLQRYGLNGNKADREAFKKVMPVVSYEDLKPDIDRIANGDTSQIICSQPISEFLTSSGTSAGERKLMPTIEEELGRRSLLYSLLMPVMNQFVPGLDRGKGMYFLFIKSETKTPGGLLARPVLTSYYKSSYFRDRPYDPYTNYTSPNETILCQDSYQSMYSQLLCGLYQNYDVLRVGAVFASGFIRAIKFLEKHWILLCNDIRNGTIDPKISDPSVREAVLKILKPNQKLADFIEAECTRESWKGIITRLWPNTKYIDVIVTGTMSQYIPTLDYYCDGLPLVCTMYASSECYFGLNLNPLSKPSEVSYTLIPTMAYFEFLPVNRKNGLINSITAPTSLDQKKDQELVDLVDVKLGEEYELVVTTYAGLYRYRVGDILRVAGFKNKAPQFNFVCRKNVVLSIDSDKTDEVELQNAVQNAANHLLPFGASLTEYTSYADTSKIPGHYVLFWEICLSGTTPIPPSVFEDCCLAIEESLNSVYRQGRVSDKSIGPLEIRITERGAFDKLMDFALSQGASINQYKAPRCVKYAPIIELLNSRVVSNYISPKCPKWVPGHKQWCTPN
[1]
  kcat (hrs−1) 2,4-D-Asp: 0.740 h⁻¹
  kcat (hrs−1) 2,4-D-Glu: 0.536 h⁻¹
[2]
  kcat (hrs−1) IAA-Asp: 660.985 h⁻¹
  kcat (hrs−1) IAA-Glu: 93.781 h⁻¹

B6: ThBAJ34606: GH3 protein, accession BAJ34606 (protein, listed as Thellungiella halophila)
chain: MPEAPKNESLEIFDLTLDEKNKRKLQLIEELTSNADQVQRRVLEEILTRNADVEYLRRHDLDGRTDRETFKNVMPVITYEDIQPEINRIANGDKSHILSIKPISEFLTSSGTSGGERKLMPTIEEELDRRSLLYSLLMPVMSQFVPGLDKGKGMYFLFIKSESKTPGGLPARPVLTSYYKSSHFKERPFDPYTNYTSPNETILCPDSYQSMYSQMLCGLCQHQEVLRVGAVFASGFIRAIKFLEKHWTELVCDIRTGVLSSLITDPSVREAVAKILKPNPKLADFVESECKKKSWQGIITRLWPNTKYVDVIVTGTMSQYIPTLDYYSNGLPLVCTMYASSECYFGVNLKPLCKPSEVSYTLIPTMAYFEFLPVHRNTGVTNSINLPKALTEKEQQELVDLVDVKLGQEYELVVTTYAGLCRYRVGDLLRVTGFKNKAPQFSFICRKNVVLSIDSDKTDEVELQNAVKNAVTHLVPFDASLSEYTSYADTSSIPGHYVLFWELCLDGNTPIPPSVFEDCCLAVEESLNTVYRQGRVSDKSIGPLEIKIVEPNTFDKLMDYAISLGASINQYKTPRCVKFAPIIELLNSRVVDSYFSPKCPKWVPGHRQWGSN
[1]
  kcat (hrs−1) 2,4-D-Asp: 4.232 h⁻¹
  kcat (hrs−1) 2,4-D-Glu: 1.750 h⁻¹
[2]
  kcat (hrs−1) IAA-Asp: 610.082 h⁻¹
  kcat (hrs−1) IAA-Glu: 67.109 h⁻¹

B7: PtGH3-6: GH3 protein, accession EEE95183 (protein, listed as Populus trichocarpa)
chain: MPEAPKNTLKTSDYNLAEKNKISLQFIEDVTSNADEVQKKVLEEILSRNAHVEYLQRHGLNGQTNRETFKKAVPVITYEDIQPDINRIANGDTSQILCSKPISEFLTSSGTSGGERKLMPTIEEELGRRSLLYSLLMPVMTQFVPGLEKGKGMYFLFIKSEAKTPGGLVARPVLTSYYKSTHFKDRPYDPYTNYTSPNETILCPDSYQSMYSQMLCGLCQHKEVLRVGAVFASGFIRAIRFLEKHWKLLANDIRTGIIDPQITDPSVREAVMKILKSDPKLADFIEAECSKESWQGIITRLWPNTKYVDVIVTGTMSQYIPTLDYYSNGLPLVCTMYASSECYFGVNLNPICKPSEVSYTLIPTMAYFEFLPVHRNNGVINSVSMPKSLNEKEQQELVDLVDVKLDQEYELVVTTYAGLYRYRVGDVLRVVGFKNKAPRFSFICRKNVVLSIDSDKTDEVELQSAVKNAVNHLIPFDATLAEYTSYADTTTIPGHYVLFWELSLNGSTPIPPSVFEDCCLTIEESLNSVYRQGRASDKSIGPLEIKIVEPGTFDKLMDYAISLGASINQYKTPRCVKFAPIVELLNSRVVTCYFSPKCPKWAPGHKQWSKN
[1]
  kcat (hrs−1) 2,4-D-Asp: 5.415 h⁻¹
  kcat (hrs−1) 2,4-D-Glu: 2.816 h⁻¹
[2]
  kcat (hrs−1) IAA-Asp: 888.111 h⁻¹
  kcat (hrs−1) IAA-Glu: 181.954 h⁻¹

From patent publication US20150351390A1, “COMPOSITIONS AND METHODS FOR AUXIN-ANALOG CONJUGATION” (PIONEER HI-BRED INTERNATIONAL, INC., priority 2012, published 2015)
